Series [1] addresses T1, mAG1-Cyclin D1 (UniProt P24385 1-295).
T1 construct: whole, on cells; also called hmAG1-Cyclin D1
Nature of the series: fluorescent foci in HEK293 cells expressing mAG1-Cyclin D1, p21-PB1 and CDK4-PB1.

Series [2] deals with the molecule itself. Nature of the series: fluorescent foci in HEK293 cells co-expressing PB1-mAG1-FKBP12, 500 nM rapamycin; homodimer formation of CD80. The procedure: (§1) (A) CD80-FRB and PB1-mAG1-FKBP12; and [0651] (B) CD2-FRB and PB1-mAG1-FKBP12.
(§2) Specifically, first, HEK293 cells were cultured in a culture solution (DMEM high glucose, 10% FBS, 1% penicillin-streptomycin). Then, on the day before the transfection, the cells were seeded onto an 8-well chamber, and cultured in 100 μL of the culture solution per well. Subsequently, a DNA solution prepared by mixing 200 ng of each of the plasmids was diluted with 10 μL of OptiMEM. Thereafter, 0.8 μL of Fugene HD was added thereto and then stirred. The resultant was further mixed with 90 μl of the culture solution. After that, the obtained mixture solution was added to the cultured cells and cultured for 20 hours.

Series [3] deals with the molecule itself. Nature of the series: fluorescent foci in HEK293 cells co-expressing PB1-mAG1-FKBP12, 500 nM rapamycin; negative control for homodimer formation. On the procedure:
as §1, §2

T1 sequence (P24385 other isoform, or with tags, fused parts or gaps): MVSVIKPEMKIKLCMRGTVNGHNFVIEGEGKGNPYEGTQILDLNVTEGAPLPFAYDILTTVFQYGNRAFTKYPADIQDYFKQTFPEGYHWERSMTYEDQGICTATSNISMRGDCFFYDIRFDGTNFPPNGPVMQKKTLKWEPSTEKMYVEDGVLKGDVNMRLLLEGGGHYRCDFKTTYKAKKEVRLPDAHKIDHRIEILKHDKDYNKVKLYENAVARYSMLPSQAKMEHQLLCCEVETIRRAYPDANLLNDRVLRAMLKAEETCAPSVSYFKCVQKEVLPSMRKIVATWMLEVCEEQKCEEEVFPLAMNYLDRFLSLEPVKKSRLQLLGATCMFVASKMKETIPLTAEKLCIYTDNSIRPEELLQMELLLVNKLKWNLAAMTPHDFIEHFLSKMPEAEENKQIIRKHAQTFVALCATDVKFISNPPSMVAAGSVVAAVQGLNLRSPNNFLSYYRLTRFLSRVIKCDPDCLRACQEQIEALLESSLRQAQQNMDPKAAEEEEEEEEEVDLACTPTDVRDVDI

B1: CDK4-PB1 (other, not shown: small tags and cut ends)
chain: ATSRYEPVAEIGVGAYGTVYKARDPHSGHFVALKSVRVPNGGGGGGGLPISTVREVALLRRLEAFEHPNVVRLMDVCATSRTDREIKVTLVFEHVDQDLRTYLDKAPPPGLPAETIKDLMRQFLRGLDFLHANCIVHRDLKPENILVTSGGTVKLADFGLARIYSYQMALTPVVVTLWYRAPEVLLQSTYATPVDMWSVGCIFAEMFRRKPLFCGNSEADQLGKIFDLIGLPPEDDWPRDVSLPRGAFPPRGPRPVQSVVPEMEESGAQLLLEMLTFNPHKRISAFRALQHSYLHKDEGNPEMASLTVKAYLLGKEDAAREIRRFSFCCSPEPEAEAEAAAGPGPCERLLSRVAALFPALRPGGFQAHYRDEDGDLVAFSSDEELTMAMSYVKDDIFRIYIKEK
notes: whole, on cells
With B1, in series [1], the binding result is “binds”.

B2: CD80-FRB (other, not shown: small tags and cut ends)
chain: VIHVTKEVKEVATLSCGHNVSVEELAQTRIYWQKEKKMVLTMMSGDMNIWPEYKNRTIFDITNNLSIVILALRPSDEGTYECVVLKYEKDAFKREHLAEVTLSVKADFPTPSISDFEIPTSNIRRIICSTSGGFPEPHLSWLENGEELNAINTTVSQDPETELYAVSSKLDFNMTTNHSFMCLIKYGHLRVNQTFNWNTTKQEHFPDNLLPSWAITLISVNGIFVICCLTYCFAPRCRERRRNERLRRESVRPVEMWHEGLEEASRLYFGERNVKGMFEVLEPLHAMMERGPQTLKETSFNQAYGRDLMEAQEWCRKYMKSGNVKDLTQAWDLYYHVFRRISKQ
notes: whole, on cells; In the assay it was joined by rapamycin to PB1-mAG1-FKBP12
B2: in series [2], the binding result is listed as “binds”.

B3: CD2-FRB (other, not shown: small tags and cut ends)
chain: KEITNALETWGALGQDINLDIPSFQMSDDIDDIKWEKTSDKKKIAQFRKEKETFKEKDTYKLFKNGTLKIKHLKTDDQDIYKVSIYDTKGKNVLEKIFDLKIQERVSKPKISWTCINTTLTCEVMNGTDPELNLYQDGKHLKLSQRVITHKWTTSLSAKFKCTAGNKVSKESSVEPVSCPEKGLDIYLIIGICGGGSLLMVFVALLVFYITKRKKQRSRRNDEELETRAHRVATEERGRKPHQIPASTPQNPATSQHPPPPPGHRSQAPSHRPPPPGHRVQHQPQKRPPAPSGTQVHQQKGPPLPRPRVQPKPPHGAAENSLSPSSNEMWHEGLEEASRLYFGERNVKGMFEVLEPLHAMMERGPQTLKETSFNQAYGRDLMEAQEWCRKYMKSGNVKDLTQAWDLYYHVFRRISKQ
notes: whole, on cells
As to B3, the binding result in series [3] is on record as “no binding”.
